Where “and” joins values, the source holds several entries; their conditions need not be identical. Identical values can stand only once. One block for each binder: values may come before it.
Columns and labels:
[1] = target: T1, HA-GCN4 hAPRIL (amino acid residues 105-250) (human, UniProt O75888 105-250); assay: indirect ELISA on HA-GCN4 human APRIL, 3-parameter fit
T1 construct: Bought (R&D Systems); also called HA-tagged GCN4 human APRIL; HA-GCN4-huAPRIL; not shown: N-terminal HA tag; GCN4 isoleucine zipper oligomerization domain
T1 sequence: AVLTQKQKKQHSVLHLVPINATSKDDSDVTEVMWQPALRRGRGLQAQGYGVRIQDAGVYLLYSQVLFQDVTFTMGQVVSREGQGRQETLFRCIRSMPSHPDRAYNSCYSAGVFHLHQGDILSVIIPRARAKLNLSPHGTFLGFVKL
Method: FIG. 5 depicts the binding of anti-APRIL antibodies to human APRIL. Relative binding of select anti-APRIL antibodies was measured by indirect ELISA. Select antibodies based on prior hybridoma screening were recombinantly produced (based on immunoglubin VH and VL gene sequencing) as described. HA-tagged GCN4 human APRIL R&D Systems was used as source of APRIL. Binding data was analyzed by non-linear regression using a three parameter fit.
(§1) Purified antibodies were further characterized for APRIL binding, APRIL species cross reactivity (human APRIL vs. mouse APRIL), and receptor blocking activity using TACI-Fc. For binding, an APRIL-based indirect ELISA was used to determine by first approximation the relative affinity of purified anti-APRIL antibodies to either human APRIL or mouse APRIL. ELISA method was as generally described above. […] Blocking and wash steps were completed as described. Binding of anti-APRIL antibodies to APRIL was quantified using an 8 point dilution of test antibody that spanned over a four log scale. Antibody binding to APRIL was detected using a rabbit anti-mouse IgG (H+L)-HRP conjugate (Jackson ImmunoResearch Laboratories). Antibody binding data was analyzed by non-linear regression analysis using a 3 parameter fit to determine max binding and apparent EC₅₀ values. […] Mouse specific antibody Apry-1-1 (Adipogen) was likewise used for quantification of antibody binding to mouse APRIL.

[2] = target: T1, HA-GCN4 hAPRIL (amino acid residues …); assay: indirect ELISA on coated HA-GCN4 human APRIL; EC50 from non-linear regression
Text: as §1

[3] = target: T1, HA-GCN4 hAPRIL (amino acid residues …); assay: blocking ELISA; blocked: human APRIL binding to human BCMA-Fc; set-up: concentration or dose not given beside the values
Method: (§2) Recombinant TACI-Fc or BCMA-Fc was coated on 96 well plates in 0.1 M carbonate-bicarbonate buffer (pH 9.6), overnight at 4° C. Plates were washed three times with 1×PBST (PBS+0.025% Tween 20) followed by blocking with 1% BSA in 1×PBS, 37° C. for 1 hour. All subsequent wash steps were carried out with 1×PBST. To assess antibody blocking, either 15 ng/mL or 50 ng/mL HA-GCN4-huAPRIL was preincubated with varying antibody concentrations ranging from 0.03-30 μg/mL in binding buffer comprised of 1% BSA and 0.025% Tween-20 in 1×PBS. Preincubation was carried out at 30° C. for 1 hour with mixing. Antibody-APRIL premix with 50 ng/mL APRIL or 15 ng/mL APRIL was then added to TACI-Fc coated or BCMA-Fc coated plates, respectively, and incubated for an additional hour at 30° C. HA-tagged APRIL binding to either receptor was quantified using a goat polyclonal anti-HA tag-HRP antibody (Abcam) added at a 1:10000 dilution followed by colorimetric development using 100 μl/well of freshly prepared TMB substrate (KPL) carried out for up to 30 minutes at room temperature before quenching enzymatic reaction by the addition of 1N sulfuric acid. ELISA signal was quantified by absorbance at 450 nm. ELISA data was analyzed by non-linear regression. IC₅₀ values were calculated based on a 4 parameter fit of antibody titration curves. […] Non-blocking antibodies Aprly-1 or Aprly-5 (Enzo Biosciences) were used as negative controls. Mouse specific, blocking antibody aprily-1-1 (Adipogen) was generally used as a positive control in experiments using mouse APRIL (HA-GCN4-mAPRIL).

[4] = target: T1, HA-GCN4 hAPRIL (amino acid residues …); assay: blocking ELISA; blocked: human APRIL binding to human TACI-Fc; set-up: concentration or dose not given beside the values
Method: as §2

[5] = target: T1, HA-GCN4 hAPRIL (amino acid residues …); assay: blocking ELISA, 4-parameter fit; blocked: human APRIL binding to human TACI-Fc
Method: as §2

[6] = target: T1, HA-GCN4 hAPRIL (amino acid residues …); assay: blocking ELISA, 4-parameter fit; blocked: human APRIL binding to human BCMA-Fc
Method: as §2

[7] = target: T1, HA-GCN4 hAPRIL (amino acid residues …); assay: competition ELISA: antibody titrated against human APRIL, read-out APRIL bound to coated human TACI-Fc
Method: Mouse specific antibody Apry-1-1 (Adipogen) was likewise used for quantification of antibody binding to mouse APRIL.
Recombinant TACI-Fc or BCMA-Fc was coated on 96 well plates in 0.1 M carbonate-bicarbonate buffer (pH 9.6), overnight at 4° C. Plates were washed three times with 1×PBST (PBS+0.025% Tween 20) followed by blocking with 1% BSA in 1×PBS, 37° C. for 1 hour. All subsequent wash steps were carried out with 1×PBST. To assess antibody blocking, either 15 ng/mL or 50 ng/mL HA-GCN4-huAPRIL was preincubated with varying antibody concentrations ranging from 0.03-30 μg/mL in binding buffer comprised of 1% BSA and 0.025% Tween-20 in 1×PBS. Preincubation was carried out at 30° C. for 1 hour with mixing. […] HA-tagged APRIL binding to either receptor was quantified using a goat polyclonal anti-HA tag-HRP antibody (Abcam) added at a 1:10000 dilution followed by colorimetric development using 100 μl/well of freshly prepared TMB substrate (KPL) carried out for up to 30 minutes at room temperature before quenching enzymatic reaction by the addition of 1N sulfuric acid. ELISA signal was quantified by absorbance at 450 nm. ELISA data was analyzed by non-linear regression. IC₅₀ values were calculated based on a 4 parameter fit of antibody titration curves. […]

[8] = target: T1, HA-GCN4 hAPRIL (amino acid residues …); assay: cell-based or functional assay
[9] = target: T1, HA-GCN4 hAPRIL (amino acid residues …); assay: indirect ELISA on human APRIL
[10] = target: T1, HA-GCN4 hAPRIL (amino acid residues …); assay: ELISA on trimeric (GCN4-stabilised) human APRIL
Text: APRIL trimer was stabilized by the N-terminal fusion of APRIL with an isoleucine zipper (GCN4) oligomerization domain Binding of APRIL to human TACI-Fc is shown for comparative purposes.

[11] = target: T1, HA-GCN4 hAPRIL (amino acid residues …); assay: blocking ELISA; blocked: human APRIL binding to BCMA-Fc
Method: as §2
Assay is based on receptor blocking ELISA using recombinant human APRIL (R&D Systems) and either human TACI-Fc (FIG. 30A) or BCMA-Fc (FIG. 30B).

[12] = target: T1, HA-GCN4 hAPRIL (amino acid residues …); assay: blocking ELISA; blocked: human APRIL binding to TACI-Fc
[13] = target: T2, HA-GCN4 mAPRIL (amino acid residues 96-241) (mouse, UniProt Q9D777 96-241, Assembles as a homotrimer through the GCN4 zipper; one protomer is given.); assay: blocking ELISA; blocked: mouse APRIL binding to human BCMA-Fc
T2 construct: Bought (R&D Systems); also called HA-tagged mouse APRIL (R&D Systems); recombinant mouse APRIL; not shown: N-terminal HA tag and GCN4 isoleucine-zipper trimerisation domain, with any linker, of the bought R&D Systems protein
T2 sequence: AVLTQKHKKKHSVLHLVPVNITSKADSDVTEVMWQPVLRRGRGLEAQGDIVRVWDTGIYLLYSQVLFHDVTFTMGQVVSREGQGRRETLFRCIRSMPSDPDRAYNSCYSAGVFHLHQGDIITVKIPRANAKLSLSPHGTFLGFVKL
Method: Recombinant TACI-Fc or BCMA-Fc was coated on 96 well plates in 0.1 M carbonate-bicarbonate buffer (pH 9.6), overnight at 4° C. Plates were washed three times with 1×PBST (PBS+0.025% Tween 20) followed by blocking with 1% BSA in 1×PBS, 37° C. for 1 hour. All subsequent wash steps were carried out with 1×PBST. To assess antibody blocking, either 15 ng/mL or 50 ng/mL HA-GCN4-huAPRIL was preincubated with varying antibody concentrations ranging from 0.03-30 μg/mL in binding buffer comprised of 1% BSA and 0.025% Tween-20 in 1×PBS. Preincubation was carried out at 30° C. for 1 hour with mixing. Antibody-APRIL premix with 50 ng/mL APRIL or 15 ng/mL APRIL was then added to TACI-Fc coated or BCMA-Fc coated plates, respectively, and incubated for an additional hour at 30° C. HA-tagged APRIL binding to either receptor was quantified using a goat polyclonal anti-HA tag-HRP antibody (Abcam) added at a 1:10000 dilution followed by colorimetric development using 100 μl/well of freshly prepared TMB substrate (KPL) carried out for up to 30 minutes at room temperature before quenching enzymatic reaction by the addition of 1N sulfuric acid. ELISA signal was quantified by absorbance at 450 nm. ELISA data was analyzed by non-linear regression. IC₅₀ values were calculated based on a 4 parameter fit of antibody titration curves. […]

EC50 [1]: 0.0143 µg/mL and 0.097 nM
EC50 [2]: < 0.2 nM
% Inhibition [3]: 0%
% Inhibition [4]: 79%
IC50 [5]: 1 nM
B1: monoclonal antibody 2621 (antibody, mouse IgG2, V domains shown)
VH: EVQLQQSGAELVRPGSSVKMSCKTSGYTFTSYGINWVKQRPGQGLEWIGYIYIGNGYAEYNERFKGKATLTSDTSSSTAYMQLSSLTSEDSAIYFCALYYPWFTYWGQGTLVTVSA
VL: DIQMTQSPASLSASVGDSVTITCRASENIYSYLAWYQQKQGKSPQLLVYNAKTLAEGVPSRFSGSGSGTQFSLKINSLQPEDFGNYYCQHHYDTPFTFGGGTKLEIK

EC50 [1]: 0.0713 µg/mL and 0.482 nM
% Inhibition [3]: 97%
% Inhibition [4]: 97%
IC50 [6]: 22 nM
IC50 [5]: 31.6 nM
IC50 [7]: > 10 nM
B2: monoclonal antibody 2922 (antibody, mouse IgG2, V domains shown)
VH: QVQLHQSGPELVKPGASVKLSCKTSGYTFTSYDVFWVKQRPGQGLEWIGWIYPRDSSTKYNEKFKGKATLTVDTSSSTAYMELHSLTSEDSAVYFCAKEGYDYDKRGFDYWGQGTTLTVSS
VL: DIVLTQSPASLAVSLGQRAIISCKASQSVSFAGTNLMHWYQQRPGQQPKLLIYRASNLEPGVPTRFSGSGSRTDFTLNIHPVEEDDAATYYCQQSREYPWTFGGGTKLEIK

IC50 (inhibition of APRIL-mediated BCMA NFκB signaling) [8]: ~0.38 nM
IC50 (inhibition of APRIL-mediated TACI NFκB signaling) [8]: ~1.02 nM
EC50 [9]: 0.00128 nM
EC50 [10]: 0.0135 nM
IC50 [11]: 0.1 nM
Relative Activity (normalised to 2419) [11]: 0.41
IC50 [12]: 0.26 nM
Relative Activity (normalised to 2419) [12]: 0.93
B3: monoclonal antibody 4035-062 (antibody, IgG1, V domains shown)
VH: QVQLQESGPGLVKPSETLSLTCTVSGFSLTIYDVHWVRQPPGKGLEWIGVIWSDGSTDYNPSLKSRVTISKDTSKNQVSLKLSSVTAADTAVYYCARNWVDQAWFAYWGQGTLVTVSS
VL: DIQMTQSPSSLSASVGDRVTITCRASKNIYSYLAWYQQKPGKAPKLLVYNAKTLPEGVPSRFSGSGSGTDFTLTISSLQPEDFATYYCQHHYGTPLTFGQGTKLEIK

EC50 [9]: 0.00334 nM
EC50 [10]: 0.0384 nM
IC50 [11]: 0.11 nM
Relative Activity (normalised to 2419) [11]: 0.47
IC50 [12]: 0.24 nM
Relative Activity (normalised to 2419) [12]: 0.88
B4: monoclonal antibody 2419-1406 (antibody, V domains shown)
VH: QVQLVQSGAEVKKPGASVKVSCKASGYTFTDYTIHWVRQATGQGLEWMGWIYPLRGSINYAQKFQGRVTMTADKSISTVYMELSSLRSEDTAVYFCARHGAYYSNAFDYWGQGTLVTVSS
VL: EIVMTQSPATLSVSPGERATLSCRASESVDNDGIRFLHWYQQKPGQAPRLLIYRASTRATGIPARFSGSGSRTEFTLTISSLQSEDFAVYYCQQSNKDPYTFGGGTKVEIK

EC50 [1]: 0.281 µg/mL and 1.9 nM
EC50 [2]: > 1 nM
% Inhibition [3]: < 10%
% Inhibition [4]: 52%
IC50 [5]: 113 nM
IC50 [7]: > 10 nM
B5: monoclonal antibody 3125 (antibody, mouse IgG2, V domains shown)
VH: QVQLQQSGAELVRPGASVTLSCKASGYTFTDYEMHWVKQTPVHGLEWIGAIDPETGGTAYNQRFKGKAILTTDKSSITAYMELRSLTSEDSAVYYCTRWNDGDYWGQGTTLTVSS
VL: DVVMTQTPLSLSVTIGQPASISCKSSQSLLYSNGKTYLNWFQQRPGQSPKRLMYQVSKLDPGIPDRFSGSGSETDFTLKISRVEAEDLGLYYCLQGTYYPYTFGGGTKLEIK

EC50 [1]: 0.0534 µg/mL and 0.361 nM
% Inhibition [3]: 48%
% Inhibition [4]: 86%
IC50 (read off the curve) [13]: ~0.3 µg/mL
IC50 [6]: 0.85 nM
IC50 [5]: 4.05 nM
B6: monoclonal antibody 3525 (antibody, mouse IgG2, V domains shown)
VH: QVQLQQSGAELVRPGASVKLSCKASGYTFTDHEMHWVRQTPVHGLEWIGVIDPDTGDTTYNQKFKGKATLTADKSSSTAYMDLRSLTSEDSAVFYCTRWTGGDYWGHGTTLTVSS
VL: B5 VL

From patent US20170145086A1 (VISTERRA, published 2017)
